Positions count from the first letter of the chain named.
T1: human LAG3 (construct not stated) (human, UniProt P18627 23-450, limits assumed)
T1 construct: also called human LAG3 protein; antigen
T1 sequence (looked up): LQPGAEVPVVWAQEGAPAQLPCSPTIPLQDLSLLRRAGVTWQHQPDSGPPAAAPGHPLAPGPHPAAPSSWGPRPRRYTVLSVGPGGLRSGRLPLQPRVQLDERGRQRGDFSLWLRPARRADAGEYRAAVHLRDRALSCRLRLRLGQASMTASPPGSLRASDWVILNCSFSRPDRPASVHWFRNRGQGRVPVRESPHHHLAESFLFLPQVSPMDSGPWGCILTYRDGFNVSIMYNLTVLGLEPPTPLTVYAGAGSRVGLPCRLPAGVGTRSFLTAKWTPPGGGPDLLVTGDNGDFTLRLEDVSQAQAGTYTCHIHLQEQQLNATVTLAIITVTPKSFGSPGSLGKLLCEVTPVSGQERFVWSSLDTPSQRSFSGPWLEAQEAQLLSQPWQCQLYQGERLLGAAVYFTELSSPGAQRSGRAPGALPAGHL

B1: Hu1210-14 (antibody, V domains shown)
VH: EVQLLESGGGLVQPGGSLRLSCAASGFTFSSYDMSWVRQAPGKSLEWVATISDGGGYIYYSDSVKGRFTISRDNSKNTLYLQMNSLRAEDTAVYICAREFGKRYALDYWGQGTTVTVSS
VL: DIQMTQSPSSLSASVGDRVTITCKASQDVTPAVAWYQQKPGKAPKLLIYSTSSRYTGVPSRFSGSGSGTDFTFTISSLQPEDIATYYCQQHYTTPLTFGQGTKLEIK
notes: Hu1210 VH.3a x Vk.1; human gamma 1 / kappa constant domains
B2: Hu1210-15 (antibody, V domains shown)
VH: B1 VH with L5V, S44G, A49S, S75A, T78S, A88D, I95Y
VL: B1 VL
notes: Hu1210 VH.4 x Vk.1; human gamma 1 / kappa constant domains
B3: Hu1210-16 (antibody, V domains shown)
VH: B1 VH with L5V, S44G, S75A, T78S, A88D, I95Y
VL: B1 VL
notes: Hu1210 VH.4a x Vk.1; human gamma 1 / kappa constant domains
B4: Hu1210-13 (antibody, V domains shown)
VH: B1 VH with S44G, A49S, I95Y
VL: B1 VL
notes: Hu1210 VH.3 x Vk.1; human gamma 1 / kappa constant domains
B5: Hu1210-22 (antibody, V domains shown)
VH: B1 VH with L5V, S75A, T78S, A88D
VL: B1 VL with A43S
notes: Hu1210 VH.4b x Vk.1a; human gamma 1 / kappa constant domains
B6: Hu1210-2 (antibody, V domains shown)
VH: B1 VH with L5V, Q13K, S44G, S75A, T78S, I95Y
VL: B1 VL
notes: Hu1210 VH.1a x Vk.1; human gamma 1 / kappa constant domains
B7: Hu1210-3 (antibody, V domains shown)
VH: B1 VH with L5V, Q13K, S75A, T78S
VL: B1 VL
notes: Hu1210 VH.1b x Vk.1; human gamma 1 / kappa constant domains
B8: Hu1210-5 (antibody, V domains shown)
VH: B1 VH with L5V, Q13K, V37I, S44G, S75A, T78S, I95Y
VL: B1 VL
notes: Hu1210 VH.2a x Vk.1; human gamma 1 / kappa constant domains
B9: Hu1210-8 (antibody, V domains shown)
VH: B1 VH with L5V, Q13K, S44G, S75A, T78S, I95Y
VL: B1 VL with A43S
notes: Hu1210 VH.1a x Vk.1a; human gamma 1 / kappa constant domains
B10: Hu1210-4 (antibody, V domains shown)
VH: B1 VH with L5V, Q13K, V37I, S44G, A49S, S75A, T78S, I95Y
VL: B1 VL
notes: Hu1210 VH.2 x Vk.1; human gamma 1 / kappa constant domains
B11: B6x147(H3807) (bispecific antibody, human IgG1, kappa, N297A)
heavy: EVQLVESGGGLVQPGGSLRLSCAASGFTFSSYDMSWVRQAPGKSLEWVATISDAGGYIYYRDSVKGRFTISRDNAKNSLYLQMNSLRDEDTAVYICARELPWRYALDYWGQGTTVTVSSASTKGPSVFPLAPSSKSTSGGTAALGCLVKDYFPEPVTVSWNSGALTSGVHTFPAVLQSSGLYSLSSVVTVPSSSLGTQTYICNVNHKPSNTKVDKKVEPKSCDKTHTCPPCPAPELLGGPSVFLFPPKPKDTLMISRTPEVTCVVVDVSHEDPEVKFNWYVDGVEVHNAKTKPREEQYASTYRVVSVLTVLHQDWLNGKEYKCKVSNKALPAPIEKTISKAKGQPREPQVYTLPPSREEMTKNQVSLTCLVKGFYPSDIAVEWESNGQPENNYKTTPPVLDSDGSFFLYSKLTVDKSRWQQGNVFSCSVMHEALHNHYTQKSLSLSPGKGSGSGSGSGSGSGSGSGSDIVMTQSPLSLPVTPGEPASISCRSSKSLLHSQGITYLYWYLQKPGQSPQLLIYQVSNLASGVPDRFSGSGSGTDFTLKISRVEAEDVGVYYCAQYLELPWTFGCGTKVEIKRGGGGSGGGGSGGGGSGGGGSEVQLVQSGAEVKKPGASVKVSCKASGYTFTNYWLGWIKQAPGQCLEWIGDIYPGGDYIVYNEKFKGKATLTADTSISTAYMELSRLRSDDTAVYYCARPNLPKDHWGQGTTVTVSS
light: DIQMTQSPSSLSASVGDRVTITCKASQDVTPAVAWYQQKPGKAPKLLIYSTSSRYTGVPSRFSGSGSGTDFTFTISSLQPEDIATYYCQQHYTTPLTFGQGTKLEIKRTVAAPSVFIFPPSDEQLKSGTASVVCLLNNFYPREAKVQWKVDNALQSGNSQESVTEQDSKDSTYSLSSTLTLSKADYEKHKVYACEVTHQGLSSPVTKSFNRGEC
B12: 147xH12 (bispecific antibody, human IgG4 S228P, kappa)
heavy: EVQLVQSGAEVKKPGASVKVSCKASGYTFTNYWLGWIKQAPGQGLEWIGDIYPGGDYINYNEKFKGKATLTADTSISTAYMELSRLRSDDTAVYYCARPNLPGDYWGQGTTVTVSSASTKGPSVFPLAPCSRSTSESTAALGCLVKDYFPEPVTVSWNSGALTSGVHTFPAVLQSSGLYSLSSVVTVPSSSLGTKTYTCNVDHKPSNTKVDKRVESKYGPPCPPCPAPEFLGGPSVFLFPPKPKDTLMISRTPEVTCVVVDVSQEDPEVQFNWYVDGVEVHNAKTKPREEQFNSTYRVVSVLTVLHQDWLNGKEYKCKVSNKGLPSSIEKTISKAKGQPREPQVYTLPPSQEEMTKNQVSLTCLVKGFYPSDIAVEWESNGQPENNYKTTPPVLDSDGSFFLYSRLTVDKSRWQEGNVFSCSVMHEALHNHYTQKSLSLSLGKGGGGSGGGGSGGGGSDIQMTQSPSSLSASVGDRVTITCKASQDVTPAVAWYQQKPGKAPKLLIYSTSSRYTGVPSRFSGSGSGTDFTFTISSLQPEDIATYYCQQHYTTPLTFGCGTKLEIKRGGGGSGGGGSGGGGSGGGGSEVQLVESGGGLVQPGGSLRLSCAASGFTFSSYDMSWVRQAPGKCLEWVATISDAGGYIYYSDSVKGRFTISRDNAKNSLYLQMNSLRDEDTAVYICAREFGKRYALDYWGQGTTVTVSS
light: DIVMTQSPLSLPVTPGEPASISCRSSKSLLHSNGITYLYWYLQKPGQSPQLLIYQVSNLASGVPDRFSGSGSGTDFTLKISRVEAEDVGVYYCAQNLELPWTFGGGTKVEIKRTVAAPSVFIFPPSDEQLKSGTASVVCLLNNFYPREAKVQWKVDNALQSGNSQESVTEQDSKDSTYSLSSTLTLSKADYEKHKVYACEVTHQGLSSPVTKSFNRGEC
notes: also called A3L1
B13: 147(H3807)xB6 (bispecific antibody, human IgG4 S228P, kappa)
heavy: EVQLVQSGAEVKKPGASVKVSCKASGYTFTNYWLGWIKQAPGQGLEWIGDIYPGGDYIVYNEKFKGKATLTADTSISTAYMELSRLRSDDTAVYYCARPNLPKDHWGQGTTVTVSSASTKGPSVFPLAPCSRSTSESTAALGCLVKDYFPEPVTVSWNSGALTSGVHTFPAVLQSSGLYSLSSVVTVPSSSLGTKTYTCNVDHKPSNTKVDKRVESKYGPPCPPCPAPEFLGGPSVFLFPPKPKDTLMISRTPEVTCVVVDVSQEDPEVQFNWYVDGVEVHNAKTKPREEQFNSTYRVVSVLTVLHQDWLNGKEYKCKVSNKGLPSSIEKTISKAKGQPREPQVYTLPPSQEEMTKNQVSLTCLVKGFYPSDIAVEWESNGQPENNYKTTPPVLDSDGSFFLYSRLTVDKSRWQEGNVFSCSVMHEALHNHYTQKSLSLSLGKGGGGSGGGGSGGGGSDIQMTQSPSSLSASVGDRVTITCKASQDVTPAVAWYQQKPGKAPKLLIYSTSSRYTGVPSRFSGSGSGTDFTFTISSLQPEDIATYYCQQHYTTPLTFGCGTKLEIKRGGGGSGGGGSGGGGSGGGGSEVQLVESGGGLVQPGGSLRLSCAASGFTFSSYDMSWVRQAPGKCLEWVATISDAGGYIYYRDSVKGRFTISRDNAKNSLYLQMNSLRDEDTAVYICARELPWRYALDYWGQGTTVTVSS
light: B12 light with N33Q, N96Y
B14: H12x147(H3807) (bispecific antibody, human IgG1, kappa, N297A)
heavy chain of H12 (IgG) - linker - scFv of 147(H3807) (VL - linker - VH): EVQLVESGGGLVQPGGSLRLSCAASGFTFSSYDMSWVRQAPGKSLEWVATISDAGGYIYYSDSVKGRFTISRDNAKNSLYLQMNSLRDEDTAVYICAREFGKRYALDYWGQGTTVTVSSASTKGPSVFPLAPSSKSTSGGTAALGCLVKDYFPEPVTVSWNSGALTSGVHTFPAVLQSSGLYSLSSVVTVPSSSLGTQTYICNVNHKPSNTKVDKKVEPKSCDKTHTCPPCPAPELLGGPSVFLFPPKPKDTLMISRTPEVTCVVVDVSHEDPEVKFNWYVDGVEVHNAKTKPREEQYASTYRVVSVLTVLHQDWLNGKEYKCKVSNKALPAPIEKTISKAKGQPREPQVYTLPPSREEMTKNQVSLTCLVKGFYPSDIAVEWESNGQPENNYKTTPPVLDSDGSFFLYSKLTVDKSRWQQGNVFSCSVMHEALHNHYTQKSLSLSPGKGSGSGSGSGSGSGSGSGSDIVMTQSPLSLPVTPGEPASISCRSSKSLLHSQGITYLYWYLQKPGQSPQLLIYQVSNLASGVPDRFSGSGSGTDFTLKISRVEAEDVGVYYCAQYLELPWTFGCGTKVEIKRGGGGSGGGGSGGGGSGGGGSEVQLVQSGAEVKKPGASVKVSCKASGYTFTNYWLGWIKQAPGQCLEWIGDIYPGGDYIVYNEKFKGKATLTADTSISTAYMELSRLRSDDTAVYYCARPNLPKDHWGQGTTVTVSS
light chain of H12: B11 light

Target: T2, human PD-L1 expressed on mammalian cells (human, UniProt Q9NZQ7 19-290)
T2 construct: whole, on cells; also called PDL1-CHOK1 cells; PDL1-Raji cells
Assay: flow cytometry (MFI) on PDL1-CHOK1 cells; EC50 table has no unit, x axis Antibodies(nM)
Procedure: (§1) To evaluate the antigen binding property, the humanized antibodies were analyzed for its binding to mammalian expressed PD-L1 by FACS. Briefly, PDL1-CHOK1 cells were firstly incubated with 5-fold serious diluted humanized antibodies starting at 2 μg/ml at RT for 1 hour. After wash by FACS buffer (PBS with 2% FBS), the alexa 488-anti-human IgG antibody was added to each well and incubated at RT for 1 hour. The MFI of Alexa 488 was evaluated by FACSAriaIII.

T2 sequence (Q9NZQ7 19-290): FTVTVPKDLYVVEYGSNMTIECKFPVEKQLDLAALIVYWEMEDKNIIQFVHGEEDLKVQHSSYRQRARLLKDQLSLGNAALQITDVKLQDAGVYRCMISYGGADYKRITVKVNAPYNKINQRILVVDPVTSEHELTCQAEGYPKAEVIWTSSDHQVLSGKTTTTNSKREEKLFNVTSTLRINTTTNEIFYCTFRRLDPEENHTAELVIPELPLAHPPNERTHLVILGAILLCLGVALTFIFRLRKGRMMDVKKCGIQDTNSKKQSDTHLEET

In order of falling EC50:
1. B2  2.04 nM
2. B4  1.57 nM
3. B1  1.46 nM
4. B3  1.41 nM

Target: T2, human PD-L1 expressed on mammalian cells
Assay: as above
Remark: another data set of the same source
Procedure: as §1

B5 was tested, and the EC50 was 1.17 nM.

Target: T3, human PD-L1 (construct not stated) (human, UniProt Q9NZQ7 19-239, limits assumed)
T3 construct: also called B7-H1 (PD-L1); PD-L1 protein
Assay: BLI Octet Red 96, affinity ranking
Text: To explore the binding kinetics of the humanized antibody, this example performed the affinity ranking by using Octet Red 96.

T3 sequence (Q9NZQ7 19-239 limits assumed): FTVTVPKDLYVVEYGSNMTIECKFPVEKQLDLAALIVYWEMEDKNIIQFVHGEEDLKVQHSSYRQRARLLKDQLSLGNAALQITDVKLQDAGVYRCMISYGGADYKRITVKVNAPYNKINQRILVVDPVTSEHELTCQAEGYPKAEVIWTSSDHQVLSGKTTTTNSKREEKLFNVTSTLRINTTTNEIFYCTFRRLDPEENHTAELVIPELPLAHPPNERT

In order of falling Kd:
1. B10  7.68 nM
2. B8  4.83 nM
3. B2  4.45 nM
4. B4  4.36 nM
5. B6  3.23 nM
6. B3  3.14 nM
7. B7  2.64 nM
8. B5  2.56 nM
9. B1  2.34 nM
10. B9  1.64 nM

In order of falling koff:
1. B10  0.000546 s⁻¹
2. B8  0.000383 s⁻¹
3. B4  0.000366 s⁻¹
4. B2  0.00035 s⁻¹
5. B3  0.000264 s⁻¹
6. B6  0.000251 s⁻¹
7. B5  0.00023 s⁻¹
8. B7  0.000228 s⁻¹
9. B1  0.000197 s⁻¹
10. B9  0.000127 s⁻¹

In order of rising kon:
1. B10  71200 M⁻¹ s⁻¹
2. B9  77200 M⁻¹ s⁻¹
3. B6  77800 M⁻¹ s⁻¹
4. B2  78700 M⁻¹ s⁻¹
5. B8  79300 M⁻¹ s⁻¹
6. B4  83800 M⁻¹ s⁻¹
7. B1  84100 M⁻¹ s⁻¹
8. B3  84100 M⁻¹ s⁻¹
9. B7  86200 M⁻¹ s⁻¹
10. B5  90000 M⁻¹ s⁻¹

Target: T2, human PD-L1 expressed on mammalian cells
Assay: FACS receptor blocking on PDL1-CHOK1 cells, competitor Bio-PD1 (30 µg/ml)
Procedure: To evaluate the blocking effect of humanized antibodies on human PD-L1 expressed on mammalian cells to bind to its receptor PD-1, the FACS-based receptor blocking assay was employed. Briefly, PDL1-CHOK1 cells were firstly incubated with 3-fold serious diluted HL1210-3 mouse mAb starting at 20 μg/ml at RT for 1 hour. After wash by FACS buffer (PBS with 2% FBS), the biotin-labeled huPD-1 were added to each well and incubated at RT for 1 hour. Then, the Streptavidin-PE was added to each well for 0.5 hour post twice wash with FACS buffer. The mean florescence intensity (MFI) of PE was evaluated by FACSAriaIII.

In order of rising TOP:
1. B1  79.6
2. B7  84.3
3. B5  85.8
4. B9  86.3
5. B3  88

Target: T2, human PD-L1 expressed on mammalian cells
Assay: flow cytometry (MFI) on PDL1-CHOK1 cells; EC50 table has no unit, x axis Antibodies(nM)
Remark: another data set of the same source
Procedure: as §1

In order of rising EC50:
1. B9  1.23 nM
2. B7  1.37 nM
3. B8  1.43 nM
4. B6  1.44 nM
5. B10  2.12 nM

Target: T4, human PD-L1-Fc protein (human, UniProt Q9NZQ7 19-239)
T4 construct: Coated on ELISA plates; also called huPD-L1; not shown: Fc part
Assay: ELISA on coated human PD-L1-Fc; EC50 table has no unit, x axis Ab(nM)
Procedure: (§2) To evaluate the antigen binding activity, the humanized antibodies were subjected to ELISA test. Briefly, microtiter plates were coated with human PD-L1-Fc protein at 0.1 μg/ml in PBS, 100 μl/well at 4° C. overnight, then blocked with 100 μl/well of 5% BSA. Five-fold dilutions of humanized antibodies starting from 10 μg/ml were added to each well and incubated for 1-2 hours at RT. The plates were washed with PBS/Tween and then incubate with […] antibody conjugated with Horse Radish Peroxidase (HRP) for 1 hour at RT. After washing, the plates were developed with TMB substrate and analyzed by spectrophotometer at OD 450-630 nm.

T4 sequence (Q9NZQ7 19-239 limits assumed): as above

With B9 the EC50 was 0.186 nM.

Target: T3, human PD-L1 (construct not stated)
Assay: SPR Biacore, capture method
Procedure: (§3) The binding affinities of bispecific antibodies PD-L1 and LAG3 of the bispecific antibodies (BsAb; 147xH12, 147H3807xB6 and B6x147H3807) prepared in Example 3 to PD-L1 protein and human LAG3 protein were tested with BIACORE™ using a capture method.

In order of falling Kd:
1. B12  27.4 nM
2. B13  5.94 nM
3. B11  1.18 nM

Target: T1, human LAG3 (construct not stated)
Assay: SPR Biacore, capture method
Procedure: as §3

In order of falling Kd:
1. B12  13.5 nM
2. B11  8.87 nM
3. B13  1.63 nM

Target: T4, human PD-L1-Fc protein
Assay: ELISA on coated human PD-L1-Fc; EC50 table has no unit, x axis Ab(nM)
Remark: another data set of the same source
Procedure: as §2

In order of falling EC50:
1. B8  0.193 nM
2. B7  0.186 nM
3. B10  0.184 nM
4. B6  0.168 nM

Target: T5, human PD-L1-his taq protein (human, UniProt Q9NZQ7 19-239, limits assumed)
T5 construct: also called recombinant PD-L1 protein; recombinant human PD-L1; not shown: his tag
Assay: SPR Biacore T200, antibody captured, PD-L1-his injected
Procedure: The binding of the humanized antibodies to recombinant PD-L1 protein (human PD-L1-his taq) was tested by BIACORE™ using a capture method. The HL1210-3 mouse mAb were captured using anti-mouse Fc antibody coated on a CM5 chip. A series dilution of human PD-L1-his taq protein was injected over captured antibody for 3 mins at a flow rate of […]. The antigen was allowed to dissociate for 900 s. All the experiments were carried out on a Biacore T200.

T5 sequence (Q9NZQ7 19-239 limits assumed): as above

In order of falling Kd:
1. B9  0.767 nM
2. B3  0.672 nM
3. B1  0.435 nM

In order of falling koff:
1. B9  7.17e-05 s⁻¹
2. B3  6.7e-05 s⁻¹
3. B1  5.29e-05 s⁻¹

In order of rising kon:
1. B9  93500 M⁻¹ s⁻¹
2. B3  99800 M⁻¹ s⁻¹
3. B1  122000 M⁻¹ s⁻¹

Target: T4, human PD-L1-Fc protein
Assay: ELISA on coated human PD-L1-Fc; EC50 table has no unit, x axis Ab(nM)
Remark: another data set of the same source
Procedure: as §2

Binder B5 has an EC50 of 0.148 nM.

Target: T4, human PD-L1-Fc protein
Assay: ELISA on coated human PD-L1-Fc, panel PD-L1
Text: To evaluate the binding activity to PD-L1 and LAG3 of the bispecific antibodies (BsAb; H12x147 and 147xH12) prepared in Example 3, the BsAb were subjected to ELISA test.

In order of rising “EC50 (read off the curve)” value:
1. B11  ~0.3 nM
2. B14  ~1 nM

Target: T4, human PD-L1-Fc protein
Assay: ELISA on coated human PD-L1-Fc; EC50 table has no unit, x axis Ab(nM)
Remark: another data set of the same source
Procedure: as §2

In order of falling EC50:
1. B2  0.187 nM
2. B4  0.187 nM
3. B3  0.179 nM
4. B1  0.163 nM
